Measured values from patent US20250161441A1, “MEDICINE COMPRISING COMBINATION OF ANTI-MUTANT-CALR ANTIBODY AND ANOTHER DRUG” (JUNTENDO EDUCATIONAL FOUNDATION, priority 2022, published 2025).
Positions count from the first letter of the chain named.

Test system: Del 52 type or Ins 5 type mutant CALR protein
Test: Verification of recognition of mutant CALR proteins (SDS-PAGE / immunoblot of culture supernatants)
Format: binding, human
Details: culture supernatants of UT-7/TPO cells expressing FLAG-tagged Del 52 or Ins 5 mutant CALR
Method: UT-7/TPO cells expressing a Del 52 type or Ins 5 type mutant CALR having a FLAG-tag inserted downstream of the signal sequence at the N-terminus were cultured, and culture supernatants containing the secreted mutant CALR proteins were prepared by centrifugation (1,600 g×5 mins, 4° C.). The culture supernatants were heat-treated in the presence of SDS and a reducing agent, then resolved on a gel by SDS polyacrylamide electrophoresis, electrically transferred on a polyvinylidene difluoride (PVDF) membrane, and reacted with a TBS-T solution containing 5% skim milk at room temperature for 1 hour, followed by reaction with a 5% BSA/TBS-T solution containing a rat clone B3, C6, or G1 antibody or mouse anti-[…] tag antibody (FUJIFILM Wako Pure Chemical Corporation) at 4° C. overnight. After washing with a TBS-T solution, the reaction products were each reacted with a 5% skim milk/TBS-T solution containing a peroxidase-labeled goat anti-rat IgG antibody (Jackson Immuno Research Inc.) or a peroxidase-labeled goat anti-mouse IgG antibody (Jackson Immuno Research Inc.) at room temperature for 1 hour. After washing with a TBS-T solution, the PVDF membranes were reacted with a peroxidase luminescence reagent. The resulting signals were detected using a FUSION image pickup apparatus.

B1: B3: rat monoclonal anti-mutant CALR antibody from hybridoma clone B3, VH SEQ ID NO: 6, VL SEQ ID NO: 7 (antibody, listed as Rattus norvegicus, V domains shown)
VH: QVQLQQSGAELVKPGSSVKISCKASGYTFTRNFIHWIKQQPGNGLEWIGWIFPGDGDTEYNQKFNGKATLTADKSSSTAYMQLSSLTSEDSAVYFCARGNYNYEYFDYWGQGVMVTVSS
VL: DIQMTQSPASLSASLGETVSIECLASEDIYSYLAWYQQKPGKSPQLLIFAANRLQDGVPSRFSGSGSGTQFSLKISGMQPEDEGDYFCLQGSKFPYTFGPGTKLELN
Recognition of full-length and cleaved mutant CALR proteins: recognize the full-length and cleaved mutant CALR proteins

B2: C6: rat monoclonal anti-mutant CALR antibody from hybridoma clone C6, VH SEQ ID NO: 8, VL SEQ ID NO: 9 (antibody, listed as Rattus norvegicus, V domains shown)
VH: QVQLQQSGAELVKPGSSVKISCKASGYTFTSYFVHWIKQQPGDGLEWIGWIYPGDGDTEYNHKFNGKSTLTADRSSSTAYMQLSSLTSEDSAVYFCARGNYYDGREVMDAWGQGASVTVSS
VL: DVVLTQTPPTLSATIGQSVSISCRSSQSLLDSDGETYLNWLLQRPGQSPQLLIYSVSNLESGVPNRFSGSGSETDFTLKISGMEAEDLGVYYCMQATHGPYTFGAGTKLELK
Recognition of full-length and cleaved mutant CALR proteins: recognize the full-length and cleaved mutant CALR proteins

B3: G1: rat monoclonal anti-mutant CALR antibody from hybridoma clone G1, VH SEQ ID NO: 10, VL SEQ ID NO: 11 (antibody, listed as Rattus norvegicus, V domains shown)
VH: B2 VH with H62Q, S68A
VL: B2 VL with S48C, M83V, A96G
Recognition of full-length and cleaved mutant CALR proteins: recognize the full-length and cleaved mutant CALR proteins
